Measurements: US20250346643A1, “TROPOMYOSIN KINASE RECEPTOR (TRK) LIGANDS AS THERAPEUTICS TO SUPPORT LIVER REGENERATION” (Vanderbilt University, priority 2024, published 2025)

Test system: primary mouse hepatocytes
Test: Cell proliferation assay (CellTiter-Glo) in primary mouse hepatocytes
Format: cell-based
Conditions: for increase of primary hepatocyte proliferation: HGF 5 ng/ml, serum-free medium (FIG. 9M); for cell proliferation, comparison of NTF3, HGF, BDNF and NAS: BDNF and HGF 20 ng/ml, NAS 500 nM (FIG. 16E)
Method: Primary hepatocyte isolation. Pdgfrb-GFP-negative or H-2Kd mice older than 4 months were anesthetized and cannulated via the portal vein. Livers were perfused with about 25 ml of pre-warmed Liver Perfusion Medium (Gibco, Waltham, MA; 17707-038) followed by about 50 ml Liver Digestion Medium (Gibco, Waltham, MA; 17703-034). Liver capsule was gently teased apart with tweezers and hepatocytes released. Cells were taken up in Hepatocyte Wash Buffer (Gibco, Waltham, MA; 17704-024) and filtered through 100 μm mesh. Cells were then centrifuged for 2 min at 100 g, 4° C. and cell pellet resuspended in ice cold 10 ml DMEM (Gibco, Waltham, MA; 11885-084)/5% FBS. 10 ml of ice cold 100% Percoll®/PBS (GE HealthCare, Chicago, IL; GE17-0891-01) was added for gradient purification and cells centrifuged for 10 min at 200 g, 4° C. Cell pellet was resuspended with 20 ml DMEM/5% FBS and centrifuged for 2 min at 100 g, 4° C. 1-2×10^3 hepatocytes were plated on collagen-coated 96-well plates in DMEM/5% FBS/Pen/Strep. Rat tail collagen I (Gibco, Waltham, MA; A1048301) was used for coating. Cell culture media was changed 3 hours after plating with either serum-free William's E media (Gibco, Waltham, MA) containing Pen/Strep (Gibco, Waltham, MA) or DMEM/5% FBS/Pen/Strep. NTF3 (STEMCELL technologies, Vancouver, Canada) was added 1 day after plating at a final concentration of 20 ng/ml and primary hepatocytes cultured for 3 days with NTF3 until analysis.
Cell proliferation assays. Primary mouse hepatocytes, HepG2 or AML 12 cells were grown in opaque-walled 96-well plates. NTF3 (final concentration 20 ng/ml) (STEMCELL Technologies, Vancouver, Canada; cat. 78074) and/or Loxo-195 (final concentration 5 nM) (Selleckchem, Houston, TX; S8636) were added into complete growth media without L-glutamine. Primary mouse hepatocytes were also grown in serum-free William's E media without supplements. Cells were analyzed by CellTiter-Glo® (Promega G7570, Madison, WI) which detects the number of viable cells on day 0 to day 5 by on detection systems GloMax® (Promega) or Bioteck Synergy H1 (Agilent, Santa Clara, CA). Mouse recombinant HGF (Abcam, Cambridge, UK; ab281797) was added to cell culture media at a final concentration 5 ng/ml. TRKB inhibitor ANA-12 (Selleckchem, Houston, TX; S7745) was diluted in DMSO (10 mM stock solution) and added to cell culture media at a final concentration of 10 nM.
Primary mouse hepatocyte isolation. Mice were anesthetized and cannulated via the portal vein. Livers were perfused with ˜25 ml of prewarmed liver perfusion medium (Gibco, Waltham, MA; 17707-038) followed by ˜50 ml of liver digestion medium (Gibco, Waltham, MA; 17703-034). The liver capsule was gently teased apart with tweezers, and hepatocytes were released. Cells were taken up in Hepatocyte Wash Buffer (Gibco, Waltham, MA; 17704-024) and filtered through a 100-μm mesh. Cells were then centrifuged for 2 min at 100 g, 4° C., and the cell pellet was resuspended in 10 ml of ice-cold DMEM (Gibco, Waltham, MA; 11885-084)/5% FBS. […] of ice-cold 100% Percoll®/PBS (GE HealthCare, Chicago, IL; GE17-0891-01) were added for gradient purification, and cells were centrifuged for 10 min at 200 g, 4° C. The cell pellet was resuspended with 20 ml of DMEM/5% FBS and centrifuged for 2 min at 100 g, 4° C. A total of 1×10^3 to 2×10^3 hepatocytes were plated on collagen-coated 96-well plates in DMEM/5% FBS/Pen/Strep. Rat tail collagen I (Gibco, Waltham, MA; A1048301) was used for coating. Cell culture media were changed 3 hours after plating with either serum-free William's E media (Gibco, Waltham, MA) containing Pen/Strep (Gibco, Waltham, MA) or DMEM/5% FBS/Pen/Strep. […]

Molecule | synergism with HGF on primary hepatocyte proliferation (NTF3 20 ng/ml + HGF 5 ng/ml, serum-free medium (FIG. 9N)) | increase of primary hepatocyte proliferation (NTF3 20 ng/ml) | cell proliferation vs control-treated hepatocytes (NTF3 20 ng/ml, serum-free and serum-containing media (FIG. 8F, 9D)) | cell proliferation, comparison of NTF3, HGF, BDNF and NAS | cell proliferation (BDNF 20 ng/ml (FIG. 16C))
NTF3: neurotrophin-3, recombinant protein; HSC-derived hepatocyte mitogen, ligand of TRKA, TRKB, TRKC | no synergistic effects | 1.5 fold | significantly higher | – | –
HGF: hepatocyte growth factor, complete hepatocyte mitogen used as comparator (protein, UniProt Q08048 33-495; Q08048 496-728, looked up) Hepatocyte growth factor …: QKKRRNTLHEFKKSAKTTLTKEDPLLKIKTKKVNSADECANRCIRNRGFTFTCKAFVFDKSRKRCYWYPFNSMSSGVKKGFGHEFDLYENKDYIRNCIIGKGGSYKGTVSITKSGIKCQPWNSMIPHEHSFLPSSYRGKDLQENYCRNPRGEEGGPWCFTSNPEVRYEVCDIPQCSEVECMTCNGESYRGPMDHTESGKTCQRWDQQTPHRHKFLPERYPDKGFDDNYCRNPDGKPRPWCYTLDPDTPWEYCAIKTCAHSAVNETDVPMETTECIQGQGEGYRGTSNTIWNGIPCQRWDSQYPHKHDITPENFKCKDLRENYCRNPDGAESPWCFTTDPNIRVGYCSQIPKCDVSSGQDCYRGNGKNYMGNLSKTRSGLTCSMWDKNMEDLHRHIFWEPDASKLNKNYCRNPDDDAHGPWCYTGNPLIPWDYCPISRCEGDTTPTIVNLDHPVISCAKTKQLR Hepatocyte growth factor beta …: VVNGIPTQTTVGWMVSLKYRNKHICGGSLIKESWVLTARQCFPARNKDLKDYEAWLGIHDVHERGEEKRKQILNISQLVYGPEGSDLVLLKLARPAILDNFVSTIDLPSYGCTIPEKTTCSIYGWGYTGLINADGLLRVAHLYIMGNEKCSQHHQGKVTLNESELCAGAEKIGSGPCEGDYGGPLICEQHKMRMVLGVIVPGRGCAIPNRPGIFVRVAYYAKWIHKVILTYKL | – | 2.6 fold | – | more potent | –
BDNF: brain-derived neurotrophic factor, neurotrophin specific for TrkB (protein) HSDPARRGELSVCDSISEWVTAADKKTAVDMSGGTVTVLEKVPVSKGQLKQYFYETKCNPMGYTKEGCRGIDKRHWNSQCRTTQSYVRALTMDSKKRIGWRFIRIDTSCVCTLTIKRGR | – | – | – | induce proliferation to a similar extent | significantly induced proliferation
